Source: patent US20200024330A1

Columns and labels:
Assay in all cases: cell-based or functional assay
[1] = target: HIV-1 Env of pseudovirus 6535.3 (Acute), clade B (HIV-1)
[2] = target: HIV-1 92RW021 envelope glycoprotein (Env) on pseudovirus (HIV-1)
[3] = target: HIV-1 MGRM-F1-022 Env (pseudovirus) (HIV-1)
[4] = target: HIV-1 APV-13 envelope protein (Env) on pseudovirus (HIV-1)
[5] = target: HIV-1 92TH021 envelope protein (Env) on pseudovirus (HIV-1)
[6] = target: HIV-1 MGRM-C-010 Env (HIV-1)
[7] = target: HIV-1 MGRM-A-013 envelope glycoprotein (Env) (HIV-1)
[8] = target: HIV-1 MGRM-C-006 Env (HIV-1)
[9] = target: HIV-1 MGRM-C-001 Env (HIV-1)
[10] = target: HIV-1 Env of pseudovirus MGRM-Chronic-B-004, clade B (HIV-1)
[11] = target: HIV-1 Env of isolate MGRM-D-005 (clade D) (HIV-1)
[12] = target: HIV-1 MGRM-F1-021 Env (pseudovirus) (HIV-1)
[13] = target: HIV-1 MGRM-F1-004 Env (pseudovirus) (HIV-1)
[14] = target: HIV-1 92UG005 envelope glycoprotein (Env) on pseudovirus (HIV-1)
[15] = target: HIV-1 93MW959 envelope glycoprotein (Env) on pseudovirus (HIV-1)
[16] = target: HIV-1 JR-CSF Env E172A (HIV-1 (isolate JR-CSF)) (UniProt P20871)
[17] = target: HIV-1 MGRM-C-027 envelope glycoprotein (Env) on pseudovirus (HIV-1)
[18] = target: HIV-1 TRO.11 Env (pseudovirus) (HIV-1)
[19] = target: HIV-1 Env of isolate MGRM-C-012 (pseudovirus) (HIV-1 isolate MGRM-C-012, subtype C)
[20] = target: HIV-1 JR-CSF Env V182A (HIV-1 (isolate JR-CSF)) (UniProt P20871)
[21] = target: HIV-1 93IN905 Env (pseudovirus) (HIV-1)
[22] = target: HIV-1 Env of isolate 97ZA012 (pseudovirus) (HIV-1 isolate 97ZA012, subtype C)
[23] = target: HIV-1 Env of isolate MG RM-D-024 (subtype D) (HIV-1)
[24] = target: HIV-1 MGRM-Chronic-B-017 Env (pseudovirus) (HIV-1)
[25] = target: HIV-1 Env of isolate MGRM-C-005 (pseudovirus) (HIV-1 isolate MGRM-C-005, subtype C)
[26] = target: HIV-1 JR-CSF Env K168A (HIV-1 (isolate JR-CSF)) (UniProt P20871)
[27] = target: HIV-1 Env of isolate MGRM-C-009 (pseudovirus) (HIV-1 isolate MGRM-C-009, subtype C)
[28] = target: HIV-1 JR-CSF Env N134A (HIV-1 (isolate JR-CSF)) (UniProt P20871)
[29] = target: HIV-1 Env of isolate 98IN022 (pseudovirus) (HIV-1 isolate 98IN022, subtype C)
[30] = target: HIV-1 Env of isolate MG RM-AG-012 (HIV-1)

Row | Substance | IC50 (µg/ml), pseudovirus neutralization [1] | IC50 (µg/ml), pseudovirus neutralization [2] | IC50 (µg/ml), pseudovirus neutralization [3] | neutralization IC50 [4] | neutralization IC50 [5] | IC50 [6] | IC50 (µg/ml), pseudovirus neutralization [7] | IC50 [8] | IC50 [9] | IC50 (µg/ml), pseudovirus neutralization [10] | IC50 (µg/ml), pseudovirus neutralization [11] | IC50 (µg/ml), pseudovirus neutralization [12] | IC50 (µg/ml), pseudovirus neutralization [13] | IC90 (pseudovirus neutralization) [14] | IC50 (µg/ml), pseudovirus neutralization [15] | Fold IC50 increase relative to wild-type [16] | IC50 (ug/ml), neutralizing activity [17] | IC50, pseudovirus neutralization [18] | IC50 (µg/mL) neutralization [19] | Fold IC50 increase relative to wild-type [20] | also measured
1 | 4E10 (antibody) | 1.23 µg/mL | 4.87 µg/mL | 1.01 µg/mL | 3.8 µg/mL | 1.9 µg/mL | 11 µg/mL | 1.46 µg/mL | 4.94 µg/mL | 5.66 µg/mL | 3.7 µg/mL | 35.2 µg/mL | 1.87 µg/mL | 2.74 µg/mL | > 50 µg/mL | 4.55 µg/mL |  |  |  |  |  | 
2 | 2F5 (antibody) | 2.76 µg/mL | 4.16 µg/mL | 1.26 µg/mL | 2.8 µg/mL | 1.51 µg/mL | > 50 µg/mL | 0.66 µg/mL | > 50 µg/mL | > 50 µg/mL | 2.41 µg/mL | > 50 µg/mL | 1.37 µg/mL | 4.31 µg/mL | > 50 µg/mL | > 50 µg/mL |  |  |  |  |  | 
3 | 5123_A06 (PGT-125) (antibody) |  |  |  |  |  |  |  |  |  |  |  |  |  |  |  | 1.8 fold | > 10 µg/mL | 0.111 µg/mL | > 50 µg/mL | 1.3 fold | neutralization IC50 [17]: > 10 µg/mL; neutralization IC80 [17]: > 10 µg/mL; neutralization IC90 [17]: > 10 µg/mL; neutralization IC95 [17]: > 10 µg/mL; IC50, pseudovirus neutralization [21]: 0.009 µg/mL; IC50 (µg/mL) neutralization [22]: 2.46 µg/mL; IC50 (µg/mL), pseudovirus neutralization [23]: > 50 µg/mL; IC50, pseudovirus neutralization [24]: > 50 µg/mL; IC50 (µg/mL) neutralization [25]: 2.09 µg/mL; Fold IC50 increase relative to wild-type [26]: 0.9 fold; IC50 (µg/mL) neutralization [27]: > 50 µg/mL; Fold IC50 increase relative to wild-type [28]: 0.5 fold; IC50 (µg/mL) neutralization [29]: 22.1 µg/mL; neutralization IC50 [30]: > 50 µg/mL; IC50 (ug/ml), neutralizing activity [14]: > 10 µg/mL; neutralization IC50 [14]: > 10 µg/mL; neutralization IC80 [14]: > 10 µg/mL; neutralization IC90 [14]: > 10 µg/mL; neutralization IC95 [14]: > 10 µg/mL
4 | 2G12 (antibody) | 3.85 µg/mL | > 50 µg/mL | > 50 µg/mL | 23.9 µg/mL | > 50 µg/mL | > 50 µg/mL | > 50 µg/mL | > 50 µg/mL | 2.93 µg/mL | 8.65 µg/mL | 25.7 µg/mL | 14.1 µg/mL | > 50 µg/mL | > 50 µg/mL | > 50 µg/mL |  |  |  |  |  | 
5 | 5141_B17 (PGT-126) (antibody) |  |  |  |  |  |  |  |  |  |  |  |  |  |  |  | 0.7 fold | 1.14 µg/mL | 0.041 µg/mL | 0.111 µg/mL | 1.4 fold | IC50 [21]: 0.0194 µg/mL; IC50, pseudovirus neutralization [21]: 0.015 µg/mL; IC80 [21]: 0.0676 µg/mL; IC90 [21]: 0.14 µg/mL; IC95 [21]: 0.275 µg/mL; IC50 (µg/mL) neutralization [22]: 0.042 µg/mL; IC50 (µg/mL), pseudovirus neutralization [23]: 0.376 µg/mL; IC50, pseudovirus neutralization [24]: > 50 µg/mL; IC50 (µg/mL) neutralization [25]: 0.298 µg/mL; Fold IC50 increase relative to wild-type [26]: 0.7 fold; IC50 (µg/mL) neutralization [27]: > 50 µg/mL; Fold IC50 increase relative to wild-type [28]: 0.6 fold; IC50 (µg/mL) neutralization [29]: 0.279 µg/mL; neutralization IC50 [30]: > 50 µg/mL; IC50 (ug/ml), neutralizing activity [14]: 0.0181 µg/mL
6 | 4858_P08 (PGT-123) (antibody) |  |  |  |  |  |  |  |  |  |  |  |  |  | > 10 µg/mL |  | 1.1 fold | 0.0169 µg/mL | 0.008 µg/mL | 0.605 µg/mL | 2.8 fold | IC50, pseudovirus neutralization [17]: 0.0169 µg/mL; IC80, pseudovirus neutralization [17]: 0.149 µg/mL; IC90 (pseudovirus neutralization) [17]: > 10 µg/mL; IC95, pseudovirus neutralization [17]: > 10 µg/mL; IC50, pseudovirus neutralization [21]: 0.004 µg/mL; IC50 (µg/mL) neutralization [22]: 0.002 µg/mL; IC50 (µg/mL), pseudovirus neutralization [23]: 0.023 µg/mL; IC50, pseudovirus neutralization [24]: > 50 µg/mL; IC50 (µg/mL) neutralization [25]: 0.012 µg/mL; Fold IC50 increase relative to wild-type [26]: 0.8 fold; IC50 (µg/mL) neutralization [27]: > 50 µg/mL; Fold IC50 increase relative to wild-type [28]: 0.4 fold; IC50 (µg/mL) neutralization [29]: 0.011 µg/mL; neutralization IC50 [30]: > 50 µg/mL; IC50 (ug/ml), neutralizing activity [14]: 2.49 µg/mL; IC50, pseudovirus neutralization [14]: 2.49 µg/mL; IC80, pseudovirus neutralization [14]: > 10 µg/mL; IC95, pseudovirus neutralization [14]: > 10 µg/mL
7 | b12 (antibody) | 1.93 µg/mL | > 50 µg/mL | > 50 µg/mL | > 25 µg/mL | 9.99 µg/mL | > 50 µg/mL | 7.04 µg/mL | > 50 µg/mL | > 50 µg/mL | 0.26 µg/mL | > 50 µg/mL | > 50 µg/mL | > 50 µg/mL | > 50 µg/mL | > 50 µg/mL |  |  |  |  |  | 
8 | 1443_C16 (PG16) (TCN-116) (antibody) | 36.9 µg/mL | 0.11 µg/mL | 0.08 µg/mL | > 50 µg/mL | 0.127 µg/mL | > 50 µg/mL | 0.09 µg/mL | 2.62 µg/mL | 16.8 µg/mL | 0.01 µg/mL | 19.7 µg/mL | > 50 µg/mL | 0.43 µg/mL | > 50 µg/mL | 0.007 µg/mL |  |  |  |  |  | 
9 | 1495_C14 (PGC14) (antibody) | 35 µg/mL | > 50 µg/mL | > 50 µg/mL | > 50 µg/mL | > 50 µg/mL | > 50 µg/mL | > 50 µg/mL | > 50 µg/mL | > 50 µg/mL | > 50 µg/mL | > 50 µg/mL | 46 µg/mL | > 50 µg/mL |  | > 50 µg/mL |  |  |  |  |  | 
